How the values were obtained:
[1] = target: T1, Human Recombinant GST-MED1 protein (aa1391-1490), Q15648
T1 chain: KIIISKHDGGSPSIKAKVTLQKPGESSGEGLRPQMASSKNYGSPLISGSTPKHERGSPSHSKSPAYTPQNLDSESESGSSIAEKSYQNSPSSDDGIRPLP

[2] = target: T2, mutant MED1-peptide SPAYAPQNLD
T2 chain: SPAYAPQNLD

[3] = target: T3, wild type MED1-peptide SPAYTPQNLD
T3 chain: SPAYTPQNLD

[4] = target: T4, MED1 (endogenous, phosphorylated upon DHT stimulation) (Homo sapiens, UniProt Q15648 1-1581, phosphothreonine at T1457 and T1032 (DHT-induced)); assay: reciprocal co-immunoprecipitation from LNCaP and VCaP nuclear lysates with MED1 and CDK7 antibodies (FIGS. 5c, 5d)
T4 construct: Endogenous protein immunoprecipitated with an anti-MED1 antibody (Bethyl A300-793A) from nuclear extracts; also called p-MED1; TRAP220
T4 sequence (Q15648 whole entry): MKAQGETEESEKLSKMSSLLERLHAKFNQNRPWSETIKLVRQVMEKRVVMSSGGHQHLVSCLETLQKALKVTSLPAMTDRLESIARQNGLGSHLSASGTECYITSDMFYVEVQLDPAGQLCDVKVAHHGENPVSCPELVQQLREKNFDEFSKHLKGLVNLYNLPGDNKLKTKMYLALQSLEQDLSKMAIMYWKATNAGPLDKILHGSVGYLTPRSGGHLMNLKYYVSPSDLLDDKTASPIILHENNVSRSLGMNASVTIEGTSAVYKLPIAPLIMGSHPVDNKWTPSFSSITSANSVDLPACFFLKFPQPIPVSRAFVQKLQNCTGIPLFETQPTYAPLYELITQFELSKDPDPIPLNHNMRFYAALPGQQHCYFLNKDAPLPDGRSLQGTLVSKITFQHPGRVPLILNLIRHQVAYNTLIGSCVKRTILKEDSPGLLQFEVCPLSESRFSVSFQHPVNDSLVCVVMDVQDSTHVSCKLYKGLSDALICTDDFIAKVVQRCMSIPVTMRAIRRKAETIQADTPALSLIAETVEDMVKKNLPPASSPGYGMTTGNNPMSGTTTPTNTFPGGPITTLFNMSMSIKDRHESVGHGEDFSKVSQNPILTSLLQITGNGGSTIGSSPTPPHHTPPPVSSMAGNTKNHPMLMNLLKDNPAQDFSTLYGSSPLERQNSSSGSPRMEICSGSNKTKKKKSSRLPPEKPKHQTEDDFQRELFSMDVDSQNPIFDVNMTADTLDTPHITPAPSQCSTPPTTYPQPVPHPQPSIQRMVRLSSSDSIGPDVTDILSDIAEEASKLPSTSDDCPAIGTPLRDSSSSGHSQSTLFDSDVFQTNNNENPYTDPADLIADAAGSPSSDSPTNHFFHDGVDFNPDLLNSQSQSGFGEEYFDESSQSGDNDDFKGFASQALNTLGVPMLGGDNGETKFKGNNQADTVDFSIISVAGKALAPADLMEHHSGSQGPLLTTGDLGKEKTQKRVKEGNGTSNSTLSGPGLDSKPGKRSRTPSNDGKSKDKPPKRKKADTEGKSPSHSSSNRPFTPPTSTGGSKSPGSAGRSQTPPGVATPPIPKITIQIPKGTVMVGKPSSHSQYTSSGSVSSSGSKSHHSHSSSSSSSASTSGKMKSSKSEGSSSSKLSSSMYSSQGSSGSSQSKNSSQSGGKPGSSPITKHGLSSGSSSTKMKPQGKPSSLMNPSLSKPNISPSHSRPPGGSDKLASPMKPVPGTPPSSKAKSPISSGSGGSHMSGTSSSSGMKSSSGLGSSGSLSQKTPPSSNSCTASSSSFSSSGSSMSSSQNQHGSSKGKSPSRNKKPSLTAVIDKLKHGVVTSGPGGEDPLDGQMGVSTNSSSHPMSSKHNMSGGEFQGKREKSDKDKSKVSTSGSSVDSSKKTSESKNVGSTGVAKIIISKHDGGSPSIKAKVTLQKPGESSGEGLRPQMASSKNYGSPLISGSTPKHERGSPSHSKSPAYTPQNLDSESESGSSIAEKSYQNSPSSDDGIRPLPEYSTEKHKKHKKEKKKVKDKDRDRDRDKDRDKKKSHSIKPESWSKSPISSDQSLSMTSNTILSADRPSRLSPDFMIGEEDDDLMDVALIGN

B1: CAK complex-CDK7/CyclinH/MAT1 enzyme (recombinant, BPS Bioscience) (protein)
chain 1: ALDVKSRAKRYEKLDFLGEGQFATVYKARDKNTNQIVAIKKIKLGHRSEAKDGINRTALREIKLLQELSHPNIIGLLDAFGHKSNISLVFDFMETDLEVIIKDNSLVLTPSHIKAYMLMTLQGLEYLHQHWILHRDLKPNNLLLDENGVLKLADFGLAKSFGSPNRAYTHQVVTRWYRAPELLFGARMYGVGVDMWAVGCILAELLLRVPFLPGDSDLDQLTRIFETLGTPTEEQWPDMCSLPDYVTFKSFPGIPLHHIFSAAGDDLLDLIQGLFLFNPCARITATQALKMKYFSNRPGPTPGCQLPRPNCPVETLKEQSNPALAIKRKRTEALEQGGLPKKLIF
chain 2: YHNSSQKRHWTFSSEEQLARLRADANRKFRCKAVANGKVLPNDPVFLEPHEEMTLCKYYEKRLLEFCSVFKPAMPRSVVGTACMYFKRFYLNNSVMEYHPRIIMLTCAFLACKVDEFNVSSPQFVGNLRESPLGQEKALEQILEYELLLIQQLNFHLIVHNPYRPFEGFLIDLKTRYPILENPEILRKTADDFLNRIALTDAYLLYTPSQIALTAILSSASRAGITMESYLSESLMLKENRTCLSQLLDIMKSMRNLVKKYEPPRSEEVAVLKQKLERCHSAELALNVITKKRKGYEDDDYVSKKSKHEEEEWTDDDLVESL
chain 3: DDQGCPRCKTTKYRNPSLKLMVNVCGHTLCESCVDLLFVRGAGNCPECGTPLRKSNFRVQLFEDPTVDKEVEIRKKVLKIYNKREEDFPSLREYNDFLEEVEEIVFNLTNNVDLDNTKKKMEIYQKENKDVIQKNKLKLTREQEELEEALEVERQENEQRRLFIQKEEQLQQILKRKNKQAFLDELESSDLPVALLLAQHKDRSTQLEMQLEKPKPVKPVTFSTGIKMGQHISLAPIHKLEEALYEYQPLQIETYGPHVPELEMLGRLGYLNHVRAASPQDLAGGYTSSLACHRALQDAFSGLFWQPS
- in vitro kinase assay, immunoblot of the reaction mixtures [1]: we observed Threonine phosphorylation, specifically at T1457, which was completely inhibited by THZ1
- luminescence based kinase assay (ADP-Glo) [2]: CDK7 exhibited no activity towards the T1457A mutant peptide
- luminescence based kinase assay (ADP-Glo) [3]: CDK7-mediated phosphorylation of the T1457 wildtype peptide was inhibited by THZ1 treatment in a dose-dependent manner

B2: CDK7 (endogenous) (enzyme, human, UniProt P50613 2-346, looked up)
chain: B1 chain 1
notes: Detected or immunoprecipitated with anti-CDK7 (Cell Signaling 2916s); also called cyclin-dependent-kinase 7
- binding result [4]: binds

— patent publication US20220288067A1 (University of Pennsylvania, published 2022)
